Measured values: article PMC11189300 (2024)

What was measured:
ZWINT^M2 [1] = molecular target: T1, ZWINT^M2 (human, UniProt O95229 1-277); experiment: BLI; Kd2 (second site)
ZWINT^M1 [2] = molecular target: T2, ZWINT^M1 (human, UniProt O95229 1-277); experiment: BLI; Kd2 (second site)
ZWINT^M2 [3] = molecular target: T1, ZWINT^M2; experiment: BLI; Kd1
ZWINT^M1 [4] = molecular target: T2, ZWINT^M1; experiment: BLI; Kd1
Mis12C^M3 = Mis12C^M3 (human, UniProt Q9H081 1-205; Q6P1K2 1-205; Q96IY1 1-281; Q9H410 1-356); experiment: ITC
Mis12C^M3, sequence (Q9H081 whole entry, chain 1 of 4): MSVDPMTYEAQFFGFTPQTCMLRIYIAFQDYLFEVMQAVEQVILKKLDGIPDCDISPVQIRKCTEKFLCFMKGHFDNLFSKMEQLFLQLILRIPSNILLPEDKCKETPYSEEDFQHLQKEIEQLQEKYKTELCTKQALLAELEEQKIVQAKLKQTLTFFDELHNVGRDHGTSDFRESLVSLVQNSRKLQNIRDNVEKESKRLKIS
Mis12C^M3, sequence (Q6P1K2 whole entry, chain 2 of 4): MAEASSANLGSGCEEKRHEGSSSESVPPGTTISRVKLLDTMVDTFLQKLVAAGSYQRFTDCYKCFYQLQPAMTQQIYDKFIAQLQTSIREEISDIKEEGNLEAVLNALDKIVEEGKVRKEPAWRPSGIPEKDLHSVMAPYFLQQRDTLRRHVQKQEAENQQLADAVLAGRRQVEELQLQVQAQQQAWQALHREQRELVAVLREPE
Mis12C^M3, sequence (Q96IY1 whole entry, chain 3 of 4): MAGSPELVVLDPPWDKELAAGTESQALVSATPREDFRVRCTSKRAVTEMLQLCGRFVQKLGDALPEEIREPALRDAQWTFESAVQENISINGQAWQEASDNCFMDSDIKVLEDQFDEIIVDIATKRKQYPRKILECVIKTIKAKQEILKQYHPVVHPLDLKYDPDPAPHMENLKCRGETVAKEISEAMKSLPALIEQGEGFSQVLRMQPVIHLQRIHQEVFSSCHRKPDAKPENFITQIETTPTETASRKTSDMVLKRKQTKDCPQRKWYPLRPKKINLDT
Mis12C^M3, sequence (Q9H410 whole entry, chain 4 of 4): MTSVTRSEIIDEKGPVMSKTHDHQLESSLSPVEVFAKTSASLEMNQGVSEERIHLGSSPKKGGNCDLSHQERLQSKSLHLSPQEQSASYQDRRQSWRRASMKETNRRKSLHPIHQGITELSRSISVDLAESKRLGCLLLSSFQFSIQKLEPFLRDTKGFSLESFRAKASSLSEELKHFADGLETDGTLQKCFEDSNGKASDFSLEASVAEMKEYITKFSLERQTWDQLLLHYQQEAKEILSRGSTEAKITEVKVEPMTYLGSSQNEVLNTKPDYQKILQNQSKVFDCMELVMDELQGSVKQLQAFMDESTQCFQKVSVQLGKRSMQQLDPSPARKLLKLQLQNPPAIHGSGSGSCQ

Mis12C^M4 = Mis12C^M4 (human, UniProt Q9H081 1-205; Q6P1K2 1-205; Q96IY1 1-281; Q9H410 1-356); experiment: ITC
Mis12C^M4, sequence (Q9H081 whole entry, chain 1 of 4): as the sequence (Q9H081 whole entry, chain 1 of 4) above
Mis12C^M4, sequence (Q6P1K2 whole entry, chain 2 of 4): as the sequence (Q6P1K2 whole entry, chain 2 of 4) above
Mis12C^M4, sequence (Q96IY1 whole entry, chain 3 of 4): as the sequence (Q96IY1 whole entry, chain 3 of 4) above
Mis12C^M4, sequence (Q9H410 whole entry, chain 4 of 4): as the sequence (Q9H410 whole entry, chain 4 of 4) above

Mis12C^M5 (NSL1 I216A) = Mis12C^M5 (NSL1 I216A) (human, UniProt Q9H081 1-205; Q6P1K2 1-205; Q96IY1 1-281; Q9H410 1-356, I216A); experiment: ITC
Mis12C^M5 (NSL1 I216A), sequence (Q9H081 whole entry, chain 1 of 4): as the sequence (Q9H081 whole entry, chain 1 of 4) above
Mis12C^M5 (NSL1 I216A), sequence (Q6P1K2 whole entry, chain 2 of 4): as the sequence (Q6P1K2 whole entry, chain 2 of 4) above
Mis12C^M5 (NSL1 I216A), sequence (Q96IY1 whole entry I216A, chain 3 of 4): as the sequence (Q96IY1 whole entry, chain 3 of 4) above, with I216A counted along it
Mis12C^M5 (NSL1 I216A), sequence (Q9H410 whole entry, chain 4 of 4): as the sequence (Q9H410 whole entry, chain 4 of 4) above

B1: KNL1 (construct of the BLI titrations with ZWINT) (domain or fragment)
chain: GKLVQSAQNEREKLQIKIDEMDKILKKIDNCLTEMETETKNLEDEEKNNPVEEWDSEMRAAEKELEQLKTEEEELQRNLLELEVQKEQTLAQIDFMQKQRNRTEELLDQLSLSEWDVVEWSDDQAVFTFVYDTIQLTITFEESVVGFPFLDKRYRKIVDVNFQSLLDEDQAPPSSLLVHKLIFQYVEEKESWKKTCTTQHQLPKMLEEFSLVVHHCRLLGEEIEYLKRWGPNYNLMNIDINNNELRLLFSSSAAFAKFEITLFLSAYYPSVPLPSTIQNHVGNTSQDDIATILSKVPLENNYLKNVVKQIYQDLFQDCHFYH
Q: For B1, which Kd (ZWINT^M2 [1]) is on record?
A: 250 nM

Q: What about the Kd (ZWINT^M1 [2]) of the same binder?
A: 25.1 nM

Q: What about the Kd (ZWINT^M2 [3]) of the same binder?
A: 1170 nM

Q: And the Kd (ZWINT^M1 [4])?
A: 235 nM

B2: full-length SPC24/SPC25 (complex)
chain 1: MAAFRDIEEVSQGLLSLLGANRAEAQQRRLLGRHEQVVERLLETQDGAEKQLREILTMEKEVAQSLLNAKEQVHQGGVELQQLEAGLQEAGEEDTRLKASLLQLTRELEELKEIEADLERQEKEVDEDTTVTIPSAVYVAQLYHQVSKIEWDYECEPGMVKGIHHGPSVAQPIHLDSTQLSRKFISDYLWSLVDTEW
chain 2: MVEDELALFDKSINEFWNKFKSTDTSCQMAGLRDTYKDSIKAFAEKLSVKLKEEERMVEMFLEYQNQISRQNKLIQEKKDNLLKLIAEVKGKKQELEVLTANIQDLKEEYSRKKETISTANKANAERLKRLQKSADLYKDRLGLEIRKIYGEKLQFIFTNIDPKNPESPFMFSLHLNEARDYEVSDSAPHLEGLAEFQENVRKTNNFSAFLANVRKAFTATVYN
Q: For B2, which Kd (Mis12C^M3) is on record?
A: 1170 nM

Q: And the Kd (Mis12C^M4)?
A: 451 nM

Q: And the Kd (Mis12C^M5 (NSL1 I216A))?
A: 774 nM
